{"source": "patent EP4509522A1", "target": "human recombinant TGFβ1 (Peprotech) (human) (UniProt P01137)", "sequence (P01137 279-390 limits assumed)": "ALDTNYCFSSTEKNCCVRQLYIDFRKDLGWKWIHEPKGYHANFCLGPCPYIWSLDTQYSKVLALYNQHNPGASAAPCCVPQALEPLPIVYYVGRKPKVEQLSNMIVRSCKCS", "assay": "cell-based or functional assay", "data": [{"substance": "BM3, truncated version of TGFβRII (from UniProt P37173 23-199) (receptor)", "values": [{"measurement": "fold-change in IFNy secretion, sub-optimal aCD3/aCD28 beads (1:300) + 10 ng/ml TGFβ versus beads alone", "value": 0.7, "unit": "fold"}, {"measurement": "fold-change in IFNy secretion, αCD3/αCD28 beads (1:100) + 10 ng/ml TGFβ versus beads alone", "value": 0.87, "unit": "fold"}]}, {"substance": "BM2, ectodomain of TGFβ receptor II (TGFβRII) with transmembrane and intracellular domains of CD137 (from UniProt P37173 23-166; Q07011 187-255)", "values": [{"measurement": "fold-change in IFNy secretion, sub-optimal aCD3/aCD28 beads (1:300) + 10 ng/ml TGFβ versus beads alone", "value": 1.9, "unit": "fold"}, {"measurement": "fold-change in IFNy secretion, αCD3/αCD28 beads (1:100) + 10 ng/ml TGFβ versus beads alone", "value": 1.2, "unit": "fold"}]}]}
